Read-outs that look alike come from different tables or passages of the source. Starred links: 1 amine or outer side, 2 acyl side, 3 side chain; linkers in the order of their positions; H or OH if unused. Non-standard residues stand in square brackets, D forms with d. Groups on a side chain read outwards from the residue. No end group written: not given here. *: point of attachment. γGlu = O=C(O)[C@H](CCC(=O)[*:2])N[*:1]; Palmitoyl = CCCCCCCCCCCCCCCC(=O)*
Experiments:
Experiment in all cases: cell-based or functional assay
human glucagon receptor [1] = molecular target: T1, human glucagon receptor (human, UniProt P47871 26-477)
T1 sequence (P47871 26-477): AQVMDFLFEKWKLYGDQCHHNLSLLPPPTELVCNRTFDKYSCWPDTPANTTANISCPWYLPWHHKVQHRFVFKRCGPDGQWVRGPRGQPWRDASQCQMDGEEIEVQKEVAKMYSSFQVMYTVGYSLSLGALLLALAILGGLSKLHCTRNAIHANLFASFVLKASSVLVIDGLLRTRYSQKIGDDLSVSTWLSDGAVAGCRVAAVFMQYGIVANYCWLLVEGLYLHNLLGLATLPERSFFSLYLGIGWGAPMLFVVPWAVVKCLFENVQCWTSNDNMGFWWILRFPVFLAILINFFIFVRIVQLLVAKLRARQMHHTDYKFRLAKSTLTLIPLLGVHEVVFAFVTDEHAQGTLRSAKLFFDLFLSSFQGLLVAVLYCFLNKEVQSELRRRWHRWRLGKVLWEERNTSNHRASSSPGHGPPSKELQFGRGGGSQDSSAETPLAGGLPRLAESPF

human GLP-1 receptor [2] = molecular target: T2, human GLP-1 receptor (human, UniProt P43220 24-463)
human glucagon receptor [3] = molecular target: T1, human glucagon receptor; remark: listed apart in the source
human GLP-1 receptor [4] = molecular target: T2, human GLP-1 receptor; remark: listed apart in the source

Binder	EC50 hGCGR (cAMP activity assay) (human glucagon receptor [1]) [nM]	EC50 hGLP1R (cAMP activity assay) (human GLP-1 receptor [2]) [nM]	EC50 hGCGR (cAMP activity assay) (human glucagon receptor [3]) [nM]	EC50 hGLP1 (cAMP activity assay) (human GLP-1 receptor [4]) [nM]
HSQGTFTSDYSKYLDSRRAQDFVQWLINY-NH2 [PD31]	0.06	0.04		
HSQGTFTSDYSKYLDARRAQDFVQWLIRT-NH2 [PD25]	0.04	0.02		
HSQGTFTSDYSKYLDMQRAHDFVQWLMNT-NH2 [PD55]	0.01	0.01		
HSQGTFFSDYSKYLDSRRAQDFVQWLLET-NH2 [PD58]	0.03	0.02		
HSQGTFTSDYSKYLDSRRAQDFVQWLLDS-NH2 [PD59]	0.02	0.01		
H[dS]QGTFTSDK([γGlu-γGlu-Palmitoyl])SKYLDSRRAHDFVQWLLNT-NH2 (N-terminus assumed; SMILES CCCCCCCCCCCCCCCC(=O)N[C@@H](CCC(=O)N[C@@H](CCC(=O)NCCCC[C@H](NC(=O)[C@H](CC(=O)O)NC(=O)[C@H](CO)NC(=O)[C@@H](NC(=O)[C@H](Cc1ccccc1)NC(=O)[C@@H](NC(=O)CNC(=O)[C@H](CCC(N)=O)NC(=O)[C@@H](CO)NC(=O)[C@@H](N)Cc1c[nH]cn1)[C@@H](C)O)[C@@H](C)O)C(=O)N[C@@H](CO)C(=O)N[C@@H](CCCCN)C(=O)N[C@@H](Cc1ccc(O)cc1)C(=O)N[C@@H](CC(C)C)C(=O)N[C@@H](CC(=O)O)C(=O)N[C@@H](CO)C(=O)N[C@@H](CCCNC(=N)N)C(=O)N[C@@H](CCCNC(=N)N)C(=O)N[C@@H](C)C(=O)N[C@@H](Cc1c[nH]cn1)C(=O)N[C@@H](CC(=O)O)C(=O)N[C@@H](Cc1ccccc1)C(=O)N[C@H](C(=O)N[C@@H](CCC(N)=O)C(=O)N[C@@H](Cc1c[nH]c2ccccc12)C(=O)N[C@@H](CC(C)C)C(=O)N[C@@H](CC(C)C)C(=O)N[C@@H](CC(N)=O)C(=O)N[C@H](C(N)=O)[C@@H](C)O)C(C)C)C(=O)O)C(=O)O) [TP535]			0.02	0.05
HSQGTFTSDYSKYLDSKRAHDFVQWLLNT-NH2 [PD45]	0.03	0.02		
HSQGIFFSDYSKYLDSRRAQDFVQWLMNT-NH2 [PD52]	0.03	0.02		
HSQGTFTSDYSKYLDWRRAQDFVQWLLNT-NH2 [PD23]	0.03	0.05		
HSQGTFTSDYSKYLDSRMAYDFVQWLMNT-NH2 [PD56]	0.08	0.05		
HSQGTFFSDYSHWLDSRRAQDFVQWLMNT-NH2 [PD43]	0.03	0.04		
H[dS]QGTFTSDK([γGlu-γGlu-Palmitoyl])SKYLDARAAHDFVQWLLNT-NH2 (N-terminus assumed; SMILES CCCCCCCCCCCCCCCC(=O)N[C@@H](CCC(=O)N[C@@H](CCC(=O)NCCCC[C@H](NC(=O)[C@H](CC(=O)O)NC(=O)[C@H](CO)NC(=O)[C@@H](NC(=O)[C@H](Cc1ccccc1)NC(=O)[C@@H](NC(=O)CNC(=O)[C@H](CCC(N)=O)NC(=O)[C@@H](CO)NC(=O)[C@@H](N)Cc1c[nH]cn1)[C@@H](C)O)[C@@H](C)O)C(=O)N[C@@H](CO)C(=O)N[C@@H](CCCCN)C(=O)N[C@@H](Cc1ccc(O)cc1)C(=O)N[C@@H](CC(C)C)C(=O)N[C@@H](CC(=O)O)C(=O)N[C@@H](C)C(=O)N[C@@H](CCCNC(=N)N)C(=O)N[C@@H](C)C(=O)N[C@@H](C)C(=O)N[C@@H](Cc1c[nH]cn1)C(=O)N[C@@H](CC(=O)O)C(=O)N[C@@H](Cc1ccccc1)C(=O)N[C@H](C(=O)N[C@@H](CCC(N)=O)C(=O)N[C@@H](Cc1c[nH]c2ccccc12)C(=O)N[C@@H](CC(C)C)C(=O)N[C@@H](CC(C)C)C(=O)N[C@@H](CC(N)=O)C(=O)N[C@H](C(N)=O)[C@@H](C)O)C(C)C)C(=O)O)C(=O)O) [TP559]			0.02	0.05
HSQGTFTSDYSKYLDELRAYDFVQWLMNT-NH2 [PD27]	0.05	0.03		
HSQGTFTSDYSKYLDSRRAQDFVDWLINS-NH2 [PD50]	0.02	0.01		
HSQGTFTSDYSKYLDSIRAQDFVQWLMDT-NH2 [PD36]	0.04	0.06		
HSQGTFTSDYSKYLDWRRAQDFVQWLQNT-NH2 [PD44]	0.02	0.01		
HSQGTFTSDYSKYLDSLMAQDFVQWLMST-NH2 [PD22]	0.02	0.03		
HSHGTFTSDYSKYLDSRRAQDFVQWLMTT-NH2 [PD51]	0.03	0.02		
HSQGTFTSDYSKYLDSRRAQDFVQWLLNQ-NH2 [PD57]	0.02	0.01		
HSQGTFTSDYSKYLDSRRAQDFVDWLLNA-NH2 [PD48]	0.07	0.02		
